The source of these data is paper PMC5974017, “Increased glutarate production by blocking the glutaryl-CoA dehydrogenation pathway and a catabolic pathway involving L-2-hydroxyglutarate” (Nature Communications, 2018).

By Km is commonly meant the substrate concentration at which the rate is half of its maximum. As a reminder, the Vmax is the top rate of the reaction or transport when substrate is in excess. For orientation: kcat/Km means the turnover number divided by the Michaelis constant. What is called stoichiometry N is the number of molecules, sites or subunits per partner or assembly.

Series [1] deals with T1, LhgO (Pseudomonas putida, UniProt Q88IT9).
T1 construct: recombinant His-tagged from E. coli BL21(DE3), pETDuet-1; partly lost FAD on purification
T1 sequence (Q88IT9 1-416): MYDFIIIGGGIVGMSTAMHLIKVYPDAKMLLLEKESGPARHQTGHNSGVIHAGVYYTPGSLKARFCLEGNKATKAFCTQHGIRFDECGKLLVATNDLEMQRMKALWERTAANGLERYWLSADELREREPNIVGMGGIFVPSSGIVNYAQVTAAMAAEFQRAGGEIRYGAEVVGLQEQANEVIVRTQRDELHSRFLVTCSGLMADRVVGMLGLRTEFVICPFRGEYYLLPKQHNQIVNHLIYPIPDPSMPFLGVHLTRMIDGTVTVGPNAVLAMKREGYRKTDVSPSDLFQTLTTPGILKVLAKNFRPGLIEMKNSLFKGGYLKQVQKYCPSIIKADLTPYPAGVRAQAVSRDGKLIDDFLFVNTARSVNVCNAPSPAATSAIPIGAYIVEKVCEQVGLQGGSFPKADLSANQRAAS
The series can be described thus: oxygen electrode, stimulation of oxidase activity. It is filed as biochemical. As to conditions: enzyme preincubated with 50 μM FAD 1 h on ice; 5 mM L-2-HG, Tris-HCl pH 7.4, 30 °C.

In series [2] the target is T1, LhgO. The series can be described thus: DCPIP reduction at […] nm; product 2-KG by HPLC and LC-MS/MS. As to conditions: 50 mM Tris-HCl pH 7.4, 30 °C, 5 mM L-2-HG, 0.1 mM DCPIP. The series is classed as biochemical.
In series [3] the target is T2, LhgO homolog from Klebsiella pneumoniae ATCC25955 (Klebsiella pneumoniae, UniProt A6T539).
T2 construct: gene ygaF; recombinant from E. coli BL21(DE3), pETDuet-1, HisTrap purified
The series can be described thus: L-2-HG oxidation to 2-KG. It is filed as biochemical.

For another series, the target named is T3, YgaF (Escherichia coli, UniProt P37339).
T3 construct: gene lhgD; recombinant from E. coli BL21(DE3), pETDuet-1, HisTrap purified
T3 sequence (P37339 1-422): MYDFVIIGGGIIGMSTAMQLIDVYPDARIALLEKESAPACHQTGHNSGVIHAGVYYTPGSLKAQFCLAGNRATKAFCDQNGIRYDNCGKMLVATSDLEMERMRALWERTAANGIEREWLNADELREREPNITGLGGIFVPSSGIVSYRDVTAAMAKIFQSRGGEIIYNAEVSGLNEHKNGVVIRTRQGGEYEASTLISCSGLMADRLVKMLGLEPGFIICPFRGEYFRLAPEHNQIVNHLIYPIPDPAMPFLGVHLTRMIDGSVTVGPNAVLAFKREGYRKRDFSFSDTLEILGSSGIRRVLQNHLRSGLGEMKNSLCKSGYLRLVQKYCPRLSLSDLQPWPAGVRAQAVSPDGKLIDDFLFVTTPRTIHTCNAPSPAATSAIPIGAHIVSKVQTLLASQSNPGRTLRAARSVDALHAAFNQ
The series can be described thus: L-2-HG oxidation to 2-KG; oxygen electrode. It is filed as biochemical. To be noted: 50 mM Tris-HCl pH 7.4, 30 °C, 5 mM L-2-HG.

For series [4], the target named is T4, CsiD homolog from Klebsiella pneumoniae ATCC25955 (Klebsiella pneumoniae, UniProt A6T540).
T4 construct: recombinant from E. coli BL21(DE3), pETDuet-1, HisTrap purified
The series can be described thus: glutarate hydroxylation by purified homolog. The series is classed as biochemical. To be noted: co-substrate 2-KG.

Series [5] addresses T5, CsiD homolog from E. coli K-12 MG1655 (Escherichia coli, UniProt P76621).
T5 construct: gene glaH; recombinant from E. coli BL21(DE3), pETDuet-1, HisTrap purified
The series can be described thus: glutarate hydroxylation by purified homolog. The series is classed as biochemical. As to conditions: co-substrate 2-KG.

The test system of a further series is O=C(O)CCC(=O)C(=O)O. The series can be described thus: Clark-type oxygen electrode, double-reciprocal plot. It is filed as biochemical, Pseudomonas putida. As to conditions: pH 6.7. The text has this:
(§1) Clark-type oxygen electrode, double-reciprocal plot on CsiD

The test system of another series is O=C(O)CCCC(=O)O. The series is described as above. The series is classed as biochemical, Pseudomonas putida. As to conditions: pH 6.7.
Description: as §1

Series [6] concerns the molecule itself. The series can be described thus: SEC; Superdex 200 10/300 GL, eluent buffer C (50 mM sodium phosphate, 150 mM sodium chloride, pH 7.2), flow 0.5 mL min^-1; calibrated with thyroglobulin, ferritin, aldolase, conalbumin, ovalbumin and RNase A; native mass divided by the calculated monomer mass of 38.9 kDa.

T5 sequence (P76621 whole entry): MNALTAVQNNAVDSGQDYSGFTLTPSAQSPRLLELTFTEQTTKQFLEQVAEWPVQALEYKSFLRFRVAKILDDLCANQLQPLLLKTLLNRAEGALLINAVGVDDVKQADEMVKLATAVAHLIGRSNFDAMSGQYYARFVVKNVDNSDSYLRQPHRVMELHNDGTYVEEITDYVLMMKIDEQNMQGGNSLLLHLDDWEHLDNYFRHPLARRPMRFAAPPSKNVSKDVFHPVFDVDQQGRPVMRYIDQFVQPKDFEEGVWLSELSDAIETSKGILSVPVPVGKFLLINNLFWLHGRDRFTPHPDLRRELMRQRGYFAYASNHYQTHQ
T4 sequence (A6T540 entry or part of it): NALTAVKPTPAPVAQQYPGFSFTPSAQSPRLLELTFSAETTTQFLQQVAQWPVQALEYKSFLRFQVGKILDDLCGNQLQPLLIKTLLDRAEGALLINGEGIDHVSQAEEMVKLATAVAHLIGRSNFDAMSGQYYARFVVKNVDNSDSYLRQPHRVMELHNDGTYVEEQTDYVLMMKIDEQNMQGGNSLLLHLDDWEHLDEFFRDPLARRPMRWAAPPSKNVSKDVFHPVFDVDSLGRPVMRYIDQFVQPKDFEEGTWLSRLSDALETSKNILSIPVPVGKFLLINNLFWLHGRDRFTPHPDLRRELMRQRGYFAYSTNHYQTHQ
T2 sequence (A6T539 entry or part of it): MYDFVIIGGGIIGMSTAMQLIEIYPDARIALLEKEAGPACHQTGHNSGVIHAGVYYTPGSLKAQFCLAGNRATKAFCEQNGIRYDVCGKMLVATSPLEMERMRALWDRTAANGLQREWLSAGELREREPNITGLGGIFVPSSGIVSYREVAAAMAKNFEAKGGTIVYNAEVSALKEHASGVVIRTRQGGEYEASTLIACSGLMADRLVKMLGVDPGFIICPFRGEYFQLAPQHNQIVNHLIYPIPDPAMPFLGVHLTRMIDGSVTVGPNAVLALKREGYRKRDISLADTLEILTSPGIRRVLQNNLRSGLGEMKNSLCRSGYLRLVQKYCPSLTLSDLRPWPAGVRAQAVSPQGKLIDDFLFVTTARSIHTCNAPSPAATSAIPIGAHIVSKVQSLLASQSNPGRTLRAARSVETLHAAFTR

With `Cc1cc2nc3c(=O)[nH]c(=O)nc-3n(C[C@H](O)[C@H](O)[C@H](O)COP(=O)(O)OP(=O)(O)OC[C@H]3O[C@@H](n4cnc5c(N)ncnc54)[C@H](O)[C@@H]3O)c2cc1C` [FAD], the “oxygen electrode, stimulation of oxidase activity” value at LhgO [1] is on record as “The oxidase activity of LhgO can be stimulated by FAD”.
For the molecule `O=C(O)CC[C@H](O)C(=O)O` [L-2-HG], the “DCPIP reduction at 600 nm; product 2-KG by HPLC and LC-MS/MS” value at LhgO [2] is “Robust activity was detected only when L-2-HG was used as the substrate”. Besides, the “L-2-HG oxidation to 2-KG” value in series [3] is “the homologs of LhgO can catalyze L-2-HG to produce 2-KG”. Besides, the “L-2-HG oxidation to 2-KG; oxygen electrode” value at YgaF is “the homologs of LhgO can catalyze L-2-HG to produce 2-KG”.
Regarding `O=C(O)CCCC(=O)O` [glutarate], the “glutarate hydroxylation by purified homolog” value in series [4] and in series [5] was “All three homologs of CsiD can catalyze the hydroxylation of glutarate” each time.
CsiD (Pseudomonas putida KT2440): in the series on O=C(O)CCC(=O)C(=O)O, the Km came out at 95.33 ± 0.97 µM, the Vmax came out at 144 µmol/min/mg and the kcat/Km came to 7.49e+06 ± 120000 M⁻¹ s⁻¹. Besides, in the series with O=C(O)CCCC(=O)O, the Km worked out at 145.67 ± 1.53 µM, the Vmax worked out at 264 µmol/min/mg and the kcat/Km came out at 6.93e+06 ± 30000 M⁻¹ s⁻¹.

B1: CsiD of P. putida KT2440, glutarate hydroxylase (enzyme, Pseudomonas putida KT2440, UniProt Q88IU0 1-325, looked up)
chain: MNAFTQIDELVMPLPLEPQGYTIAPSKQSPRLLELTFARETVEAFVQAVAQWPVQALEYKSFLRFRVGEILDELCQGTLRPVLLNTILDRATGGMLITPIGLDDVSQAEDMVKFTTACAHLIGRSNYDAMSGQFYARFVVVNSDNSDSYLRQPHRVMELHNDGTFVNQITDYVLMLKIDEKNMEGGNSLLLHLDDWEQCEAFFRHPLARREMRWTAPPSKKVAEDVFHSVFDTDAEGRPTMRYIDQFVQPENYEEGIWLNALSESLEGSGKKVSVPVGVGSFLLINNLFWLHGRDRFTPHEGLRRELMRQRGYVAFPKPLYQRGQ
notes: CsiD (glutarate hydroxylase) of Pseudomonas putida KT2440, locus PP2909; gene amplified from genomic DNA with primers csiD-F/csiD-R and cloned EcoRI/HindIII into pETDuet-1; also called PP2909; Fe2+/2-KG-dependent glutarate hydroxylase; source: E. coli BL21(DE3) harboring pETDuet-csiD, purified (HisTrap HP column)
As for B1, the “stoichiometry N” value in [6] is 8.
